From patent publication US20230167164A1 (IMMUNOWAKE, published 2023)

T1: mouse PD-1 (mouse, UniProt Q02242 25-167, limits assumed)
T1 construct: also called mPD-1
T1 sequence (looked up): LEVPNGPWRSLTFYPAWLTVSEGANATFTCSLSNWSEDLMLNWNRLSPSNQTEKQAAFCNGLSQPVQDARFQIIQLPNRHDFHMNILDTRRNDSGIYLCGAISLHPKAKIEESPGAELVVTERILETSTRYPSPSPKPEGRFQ


Assays:
[1] = biological target: T2, human PD-1 (human, UniProt Q15116 25-167, limits assumed); assay: PD-L2-Fc format, calibrated on PD-L2(wt)-Fc binding affinity
T2 construct: nivolumab is called an anti-human PD-1 antibody; also called hPD-1
T2 sequence (Q15116 25-167 limits assumed): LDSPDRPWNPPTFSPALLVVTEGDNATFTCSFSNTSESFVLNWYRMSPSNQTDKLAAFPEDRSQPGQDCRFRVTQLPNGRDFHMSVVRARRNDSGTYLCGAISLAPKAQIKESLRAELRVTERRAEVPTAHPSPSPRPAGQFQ

[2] = biological target: T1, mouse PD-1; assay: as above

| Kd [1] [nM] | Kd [2] [nM] | Binder |
| --- | --- | --- |
| 520 | 430 | PD-L2(mut1)-Fc (Fc fusion, also called T56V) chain 1: LFTVTVPKELYIIEHGSNVTLECNFDTGSHVNLGAIVASLQKVENDTSPHRERATLLEEQLPLGKASFHIPQVQVRDEGQYQCIIIYGVAWDYKYLTLKVKASYRKINTHILKVPETDEVELTCQATGYPLAEVSWPNVSVPANTSHSRTPEGLYQVTSVLRLKPPPGRNFSCVFWNTHVRELTLASIDLQSQMEPRTHPTDKTHTCPPCPAPEDEGGPSVFLFPPKPKDTLMISRTPEVTCVVVDVSHEDPEVKFNWYVDGVEVHNAKTKPREEQYNSTYRVVSVLTVLHQDWLNGKEYKCKVSNKALPAPIEKTISKAKGQPREPQVYVYPPSREEMTKNQVSLTCLVKGFYPSDIAVEWESNGQPENNYKTTPPVLDEDGSFALVSKLTVDKSRWQQGNVFSCSVMHEALHNHYTQKSLSLSPGK chain 2: LFTVTVPKELYIIEHGSNVTLECNFDTGSHVNLGAIVASLQKVENDTSPHRERATLLEEQLPLGKASFHIPQVQVRDEGQYQCIIIYGVAWDYKYLTLKVKASYRKINTHILKVPETDEVELTCQATGYPLAEVSWPNVSVPANTSHSRTPEGLYQVTSVLRLKPPPGRNFSCVFWNTHVRELTLASIDLQSQMEPRTHPTDKTHTCPPCPAPEKKGGPSVFLFPPKPKDTLMISRTPEVTCVVVDVSHEDPEVKFNWYVDGVEVHNAKTKPREEQYNSTYRVVSVLTVLHQDWLNGKEYKCKVSNKALPAPIEKTISKAKGQPREPQVYVLPPSREEMTKNQVSLLCLVKGFYPSDIAVEWESNGQPENRYMTWPPVLDSDGSFFLYSKLTVDKSRWQQGNVFSCSVMHEALHNHYTQKSLSLSPGK |
| 255 | 220 | PD-L2(mut4)-Fc (Fc fusion, also called PD-L2(T56V/S58V/Q60L)) chain 1: LFTVTVPKELYIIEHGSNVTLECNFDTGSHVNLGAIVAVLLKVENDTSPHRERATLLEEQLPLGKASFHIPQVQVRDEGQYQCIIIYGVAWDYKYLTLKVKASYRKINTHILKVPETDEVELTCQATGYPLAEVSWPNVSVPANTSHSRTPEGLYQVTSVLRLKPPPGRNFSCVFWNTHVRELTLASIDLQSQMEPRTHPTDKTHTCPPCPAPEDEGGPSVFLFPPKPKDTLMISRTPEVTCVVVDVSHEDPEVKFNWYVDGVEVHNAKTKPREEQYNSTYRVVSVLTVLHQDWLNGKEYKCKVSNKALPAPIEKTISKAKGQPREPQVYVYPPSREEMTKNQVSLTCLVKGFYPSDIAVEWESNGQPENNYKTTPPVLDEDGSFALVSKLTVDKSRWQQGNVFSCSVMHEALHNHYTQKSLSLSPGK chain 2: LFTVTVPKELYIIEHGSNVTLECNFDTGSHVNLGAIVAVLLKVENDTSPHRERATLLEEQLPLGKASFHIPQVQVRDEGQYQCIIIYGVAWDYKYLTLKVKASYRKINTHILKVPETDEVELTCQATGYPLAEVSWPNVSVPANTSHSRTPEGLYQVTSVLRLKPPPGRNFSCVFWNTHVRELTLASIDLQSQMEPRTHPTDKTHTCPPCPAPEKKGGPSVFLFPPKPKDTLMISRTPEVTCVVVDVSHEDPEVKFNWYVDGVEVHNAKTKPREEQYNSTYRVVSVLTVLHQDWLNGKEYKCKVSNKALPAPIEKTISKAKGQPREPQVYVLPPSREEMTKNQVSLLCLVKGFYPSDIAVEWESNGQPENRYMTWPPVLDSDGSFFLYSKLTVDKSRWQQGNVFSCSVMHEALHNHYTQKSLSLSPGK |
| 350 | 230 | PD-L2(mut2)-Fc (Fc fusion, also called PD-L2(S58V)) chain 1: LFTVTVPKELYIIEHGSNVTLECNFDTGSHVNLGAITAVLQKVENDTSPHRERATLLEEQLPLGKASFHIPQVQVRDEGQYQCIIIYGVAWDYKYLTLKVKASYRKINTHILKVPETDEVELTCQATGYPLAEVSWPNVSVPANTSHSRTPEGLYQVTSVLRLKPPPGRNFSCVFWNTHVRELTLASIDLQSQMEPRTHPTDKTHTCPPCPAPEDEGGPSVFLFPPKPKDTLMISRTPEVTCVVVDVSHEDPEVKFNWYVDGVEVHNAKTKPREEQYNSTYRVVSVLTVLHQDWLNGKEYKCKVSNKALPAPIEKTISKAKGQPREPQVYVYPPSREEMTKNQVSLTCLVKGFYPSDIAVEWESNGQPENNYKTTPPVLDEDGSFALVSKLTVDKSRWQQGNVFSCSVMHEALHNHYTQKSLSLSPGK chain 2: LFTVTVPKELYIIEHGSNVTLECNFDTGSHVNLGAITAVLQKVENDTSPHRERATLLEEQLPLGKASFHIPQVQVRDEGQYQCIIIYGVAWDYKYLTLKVKASYRKINTHILKVPETDEVELTCQATGYPLAEVSWPNVSVPANTSHSRTPEGLYQVTSVLRLKPPPGRNFSCVFWNTHVRELTLASIDLQSQMEPRTHPTDKTHTCPPCPAPEKKGGPSVFLFPPKPKDTLMISRTPEVTCVVVDVSHEDPEVKFNWYVDGVEVHNAKTKPREEQYNSTYRVVSVLTVLHQDWLNGKEYKCKVSNKALPAPIEKTISKAKGQPREPQVYVLPPSREEMTKNQVSLLCLVKGFYPSDIAVEWESNGQPENRYMTWPPVLDSDGSFFLYSKLTVDKSRWQQGNVFSCSVMHEALHNHYTQKSLSLSPGK |
| 490 | 320 | PD-L2(mut3)-Fc (Fc fusion, also called Q60L) chain 1: LFTVTVPKELYIIEHGSNVTLECNFDTGSHVNLGAITASLLKVENDTSPHRERATLLEEQLPLGKASFHIPQVQVRDEGQYQCIIIYGVAWDYKYLTLKVKASYRKINTHILKVPETDEVELTCQATGYPLAEVSWPNVSVPANTSHSRTPEGLYQVTSVLRLKPPPGRNFSCVFWNTHVRELTLASIDLQSQMEPRTHPTDKTHTCPPCPAPEDEGGPSVFLFPPKPKDTLMISRTPEVTCVVVDVSHEDPEVKFNWYVDGVEVHNAKTKPREEQYNSTYRVVSVLTVLHQDWLNGKEYKCKVSNKALPAPIEKTISKAKGQPREPQVYVYPPSREEMTKNQVSLTCLVKGFYPSDIAVEWESNGQPENNYKTTPPVLDEDGSFALVSKLTVDKSRWQQGNVFSCSVMHEALHNHYTQKSLSLSPGK chain 2: LFTVTVPKELYIIEHGSNVTLECNFDTGSHVNLGAITASLLKVENDTSPHRERATLLEEQLPLGKASFHIPQVQVRDEGQYQCIIIYGVAWDYKYLTLKVKASYRKINTHILKVPETDEVELTCQATGYPLAEVSWPNVSVPANTSHSRTPEGLYQVTSVLRLKPPPGRNFSCVFWNTHVRELTLASIDLQSQMEPRTHPTDKTHTCPPCPAPEKKGGPSVFLFPPKPKDTLMISRTPEVTCVVVDVSHEDPEVKFNWYVDGVEVHNAKTKPREEQYNSTYRVVSVLTVLHQDWLNGKEYKCKVSNKALPAPIEKTISKAKGQPREPQVYVLPPSREEMTKNQVSLLCLVKGFYPSDIAVEWESNGQPENRYMTWPPVLDSDGSFFLYSKLTVDKSRWQQGNVFSCSVMHEALHNHYTQKSLSLSPGK |
